Measurements published in US7655759 (VRIJE UNIVERSITEIT BRUSSEL, dated 2010).

T1: recombinant C fragment of tetanus neurotoxin (Clostridium tetani, UniProt P04958 865-1315)
T1 construct: domain: C fragment
T1 sequence: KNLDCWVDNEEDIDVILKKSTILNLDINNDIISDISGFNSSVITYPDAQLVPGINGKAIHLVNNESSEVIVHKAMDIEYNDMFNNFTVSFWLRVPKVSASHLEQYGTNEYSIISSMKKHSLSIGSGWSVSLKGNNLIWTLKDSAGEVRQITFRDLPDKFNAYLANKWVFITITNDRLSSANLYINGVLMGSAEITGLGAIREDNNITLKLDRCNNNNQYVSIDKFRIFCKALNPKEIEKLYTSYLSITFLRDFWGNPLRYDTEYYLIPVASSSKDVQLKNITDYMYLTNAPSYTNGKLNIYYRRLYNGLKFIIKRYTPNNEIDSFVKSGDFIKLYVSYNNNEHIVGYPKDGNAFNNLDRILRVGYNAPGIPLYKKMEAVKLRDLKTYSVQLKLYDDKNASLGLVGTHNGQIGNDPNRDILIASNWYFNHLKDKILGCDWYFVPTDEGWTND


How the values were obtained:
[1] = target: T2, Hen Egg Lysozyme (hen, UniProt P00698 19-147); assay: inhibition ELISA, binding competed with free antigen
T2 construct: also called HEL

[2] = target: T1, recombinant C fragment of tetanus …; assay: ELISA, bacterial extract
[3] = target: T3, Protein A (UniProt P38507 37-477); assay: Protein A-Sepharose chromatography
T3 construct: also called Protein A-SEPHAROSE

Row | Binder | Ki [1] [nM] | binding result [2] | binding result [3]
1 | camel VHH α-LYS2 (anti-lysozyme) (VHH, also called LYS2 VHH; pHEN4-αLYS2) VHH: EVQLQASGGGSVQAGQSLRLSCATSGATSSSNCMGWFRQAPGKEREGVAVIDTGRGNTAYADSVQGRLTISLDNAKNTLYLQMNSLKPEDTAMYYCAADTSTWYRGYCGTNPNYFSYWGQGTQVTVSS | ~50 |  | 
2 | camel VHH αTT2 (anti-tetanus toxoid) (VHH) VHH: EVQLQASGGGSVQAGGSLRLSCTAANYAFDSKTVGWFRQVPGKEREGVAGISSGGSTTAYSDSVKGRYTVSLENAKNTVYLLIDNLQPEDTAIYYCAGVSGWRGRQWLLLAETYRFWGQGTQVTVSS |  | no binding | 
3 | camel VHH α-LYS3 (anti-lysozyme) (VHH, also called LYS3 VHH; pHEN4-αLYS3) VHH: DVQLQASGGGSVQAGGSLRLSCAASGYTIGPYCMGWFRQAPGKEREGVAAINMGGGITYYADSVKGRFTISQDNAKNTVYLLMNSLEPEDTAIYYCAADSTIYASYYECGHGLSTGGYGYDSWGQGTQVTVSS | ~500 |  | no binding
